Laboratory results: patent US8212003

System: fusion protein SFH (SAK-GSIEGR-HV2)

blood coagulant factor FXa
Anticoagulant activities (clot method) after cleavage of SFH with 0.2 U of FXa for 10 min at 37° C.: 2560 ATU
